Data from IntAct's records for PubMed 17948050.

B1: Mucosa-associated lymphoid tissue lymphoma translocation protein 1 (Homo sapiens), Q9UDY8 (parent)
chain: MSLLGDPLQALPPSAAPTGPLLAPPAGATLNRLREPLLRRLSELLDQAPEGRGWRRLAELAGSRGRLRLSCLDLEQCSLKVLEPEGSPSLCLLKLMGEKGCTVTELSDFLQAMEHTEVLQLLSPPGIKITVNPESKAVLAGQFVKLCCRATGHPFVQYQWFKMNKEIPNGNTSELIFNAVHVKDAGFYVCRVNNNFTFEFSQWSQLDVCDIPESFQRSVDGVSESKLQICVEPTSQKLMPGSTLVLQCVAVGSPIPHYQWFKNELPLTHETKKLYMVPYVDLEHQGTYWCHVYNDRDSQDSKKVEIIIGRTDEAVECTEDELNNLGHPDNKEQTTDQPLAKDKVALLIGNMNYREHPKLKAPLVDVYELTNLLRQLDFKVVSLLDLTEYEMRNAVDEFLLLLDKGVYGLLYYAGHGYENFGNSFMVPVDAPNPYRSENCLCVQNILKLMQEKETGLNVFLLDMCRKRNDYDDTIPILDALKVTANIVFGYATCQGAEAFEIQHSGLANGIFMKFLKDRLLEDKKITVLLDEVAEDMGKCHLTKGKQALEIRSSLSEKRALTDPIQGTEYSAESLVRNLQWAKAHELPESMCLKFDCGVQIQLGFAAEFSNVMIIYTSIVYKPPEIIMCDAYVTDFPLDLDIDPKDANKGTPEETGSYLVSKDLPKHCLYTRLSSLQKLKEHLVFTVCLSYQYSGLEDTVEDKQEVNVGKPLIAKLDMHRGLGRKTCFQTCLMSNGPYQSSAATSGGAGHYHSLQDPFHGVYHSHPGNPSNVTPADSCHCSRTPDAFISSFAHHASCHFSRSNVPVETTDEIPFSFSDRLRISEK

Variants of: B1
Settings: with ubc_human UBC

Variant | effect of a mutation on the interaction
K644R;K648R;K661R;K665R;K677R;K679R;K702R;K709R;K714R;K724R;K824R | disrupting interaction
